Here are results for 2 substances from patent publication US10745439B2, “Kinase substrates and methods of use thereof” (REGENTS OF THE UNIVERSITY OF MINNESOTA, priority 2017, dated 2020).

For one test, the target named is Akt (Homo sapiens, UniProt P31749). The experiment in a line: in vitro time-course kinase assay with Akt and Aktide biosensor (MALDI/TOF/TOF-MS readout). Format: biochemical. Conditions: 15 nM kinase, 20 μM peptide, 100 μM ATP, 37° C., time points 0, 30, 60, 120 min; result after 2 hr. The procedure: FIG. 7. […] The abundance of the biosensor (labeled “Aktide”) and its phosphorylated version (labeled “phospho Aktide”) are shown over four different time points (0, 30, 60, 120 min) which represent the amount of time the peptide was incubated with the kinase.
Akt, sequence (P31749 whole entry): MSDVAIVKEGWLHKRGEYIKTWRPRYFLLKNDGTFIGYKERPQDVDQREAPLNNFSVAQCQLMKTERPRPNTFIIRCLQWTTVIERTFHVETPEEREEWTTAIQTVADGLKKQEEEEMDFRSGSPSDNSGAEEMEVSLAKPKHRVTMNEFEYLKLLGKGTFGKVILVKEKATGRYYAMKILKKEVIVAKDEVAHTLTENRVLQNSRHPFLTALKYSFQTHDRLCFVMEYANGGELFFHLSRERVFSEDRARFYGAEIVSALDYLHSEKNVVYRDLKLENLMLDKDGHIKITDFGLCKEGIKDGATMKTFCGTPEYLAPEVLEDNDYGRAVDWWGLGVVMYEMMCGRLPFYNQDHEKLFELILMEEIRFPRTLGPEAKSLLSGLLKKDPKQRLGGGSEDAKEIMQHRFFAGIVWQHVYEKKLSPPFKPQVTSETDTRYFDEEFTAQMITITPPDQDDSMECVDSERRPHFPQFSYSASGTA
The in vitro kinase assay was performed with Akt and Aktide biosensor (RRRRRSVDSHGGKbiotinGG (SEQ ID NO:11)). First, the kinase (15 nM final concentration) was pre-incubated in kinase reaction buffer (10 mM HEPES, 10 mM MgCl2, 0.125 ng/μL BSA, 100 μM adenosine triphosphate (ATP), pH 7.5) for 15 minutes. Then the substrate peptide, Aktide (20 μM final concentration), was added and the reaction was kept at 37° C. The reaction was monitored at different time points by removing 20 μL aliquots and quenching with 10 μL of 6 M urea at 0, 30, 60, and 120 minutes. The samples were then desalted with C18 zip tips according to the manufacturer's protocol and analyzed on an Applied Biosystems-Sciex 5800 MALDI/TOF/TOF-MS.

The target of another test is T1, LKB1 (Homo sapiens, UniProt Q15831).
T1 sequence (Q15831 1-433): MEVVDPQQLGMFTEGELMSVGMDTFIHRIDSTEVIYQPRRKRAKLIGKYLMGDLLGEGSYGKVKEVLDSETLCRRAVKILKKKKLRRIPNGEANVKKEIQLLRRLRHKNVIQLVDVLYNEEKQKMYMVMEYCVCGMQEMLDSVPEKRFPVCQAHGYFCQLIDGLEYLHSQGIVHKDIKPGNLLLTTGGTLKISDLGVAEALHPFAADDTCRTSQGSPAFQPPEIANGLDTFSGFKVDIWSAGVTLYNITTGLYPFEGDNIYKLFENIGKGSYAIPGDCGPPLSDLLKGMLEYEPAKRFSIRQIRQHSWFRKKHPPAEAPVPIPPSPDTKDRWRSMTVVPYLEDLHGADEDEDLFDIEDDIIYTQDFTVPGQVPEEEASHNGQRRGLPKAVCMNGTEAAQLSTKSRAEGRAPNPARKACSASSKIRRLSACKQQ
T1 sequence (Q7RTN6 1-431 partner): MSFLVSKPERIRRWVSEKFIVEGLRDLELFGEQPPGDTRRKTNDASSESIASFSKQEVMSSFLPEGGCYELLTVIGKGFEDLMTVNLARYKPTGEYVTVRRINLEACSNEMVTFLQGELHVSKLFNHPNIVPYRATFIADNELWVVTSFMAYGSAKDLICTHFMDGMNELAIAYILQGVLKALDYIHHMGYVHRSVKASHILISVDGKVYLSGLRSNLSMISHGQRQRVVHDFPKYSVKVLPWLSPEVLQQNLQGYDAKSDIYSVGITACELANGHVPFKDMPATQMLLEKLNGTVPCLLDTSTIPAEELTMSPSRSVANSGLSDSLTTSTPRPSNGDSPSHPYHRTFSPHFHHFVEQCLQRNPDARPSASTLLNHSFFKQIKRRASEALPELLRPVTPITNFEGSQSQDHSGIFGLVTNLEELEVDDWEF
T1 sequence (Q9Y376 1-341 partner): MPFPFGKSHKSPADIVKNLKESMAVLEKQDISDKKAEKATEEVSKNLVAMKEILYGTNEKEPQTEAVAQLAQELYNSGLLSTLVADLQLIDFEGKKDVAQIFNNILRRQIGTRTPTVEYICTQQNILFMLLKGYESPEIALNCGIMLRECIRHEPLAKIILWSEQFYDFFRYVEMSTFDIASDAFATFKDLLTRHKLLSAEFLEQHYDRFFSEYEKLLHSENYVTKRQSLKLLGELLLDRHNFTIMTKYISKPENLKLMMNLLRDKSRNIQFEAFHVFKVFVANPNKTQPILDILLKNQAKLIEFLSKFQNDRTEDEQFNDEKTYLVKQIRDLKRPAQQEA
The experiment in a line: in vitro kinase assay screen with LKB1 and candidate biosensor peptides (LC ESI-MS readout). Conditions: 15 nM kinase, 20 μM peptide, 100 μM ATP, 37° C., 3 hr reaction. The class given is biochemical. The protocol: FIGS. 8A-B. FIG. 8A. Results from an initial kinase assay with LKB1 testing candidate biosensor peptide substrate WHLQTWCGYGGKbiotinGG (SEQ ID NO:12). The data shown is the abundance of the peptide and its phosphorylated version (SEQ ID NO:14) after incubation with the kinase for 3 hr. FIG. 8B. Zoomed in version of the spectrum showing relative abundance.
The in vitro kinase assay screen was performed with LKB1 and the candidate biosensor sequence (WHLQTWCGYGGKbiotinGG (SEQ ID NO:12)). First the kinase, (15 nM final concentration), was pre-incubated in kinase reaction buffer (10 mM HEPES, 10 mM MgCl2, 0.125 ng/μL BSA, 100 μM adenosine triphosphate (ATP), pH 7.5) for 15 minutes. Then the substrate peptide, (20 μM final concentration), was added and the reaction was kept at 37° C. The reaction was quenched with 6 M urea and then the sample was desalted with C18 zip tips according to the manufacturer's protocol and analyzed on an Agilent 1200 series LC and Agilent 6130 quadrupole ESI-MS.

Ends that are not written are not given here. * marks the point of attachment. Biotin = O=C1N[C@H]2[C@H](CS[C@H]2CCCCC(=O)*)N1

“RRRRRSVDSHGGKbiotinGG (RRRRRSVDSHGGK(Biotin)GG) [artificial Akt substrate peptide biosensor with C-terminal -GGKbiotinGG tag]”: the “phosphorylation of the peptide substrate by Akt (conversion to phosphorylated product)” value with Akt is on record as “Nearly complete conversion to phosphorylated product”.

For the substance “WHLQTWCGYGGKbiotinGG (WHLQTWCGYGGK(Biotin)GG) [candidate LKB1 biosensor peptide substrate with C-terminal -GGKbiotinGG tag]”, the “phosphorylation of the peptide substrate by LKB1” value with LKB1 is given as “partially phosphorylated”.
